In patent publication US20250145690A1 (US Dept. of Health and Human Services, published 2025):
Substitutions are numbered along the chain they refer to.

T1: HCoV-229E spike protein (Sino Biological 40605-V08B) (HCoV-229E, UniProt P15423 16-1115)
T1 sequence: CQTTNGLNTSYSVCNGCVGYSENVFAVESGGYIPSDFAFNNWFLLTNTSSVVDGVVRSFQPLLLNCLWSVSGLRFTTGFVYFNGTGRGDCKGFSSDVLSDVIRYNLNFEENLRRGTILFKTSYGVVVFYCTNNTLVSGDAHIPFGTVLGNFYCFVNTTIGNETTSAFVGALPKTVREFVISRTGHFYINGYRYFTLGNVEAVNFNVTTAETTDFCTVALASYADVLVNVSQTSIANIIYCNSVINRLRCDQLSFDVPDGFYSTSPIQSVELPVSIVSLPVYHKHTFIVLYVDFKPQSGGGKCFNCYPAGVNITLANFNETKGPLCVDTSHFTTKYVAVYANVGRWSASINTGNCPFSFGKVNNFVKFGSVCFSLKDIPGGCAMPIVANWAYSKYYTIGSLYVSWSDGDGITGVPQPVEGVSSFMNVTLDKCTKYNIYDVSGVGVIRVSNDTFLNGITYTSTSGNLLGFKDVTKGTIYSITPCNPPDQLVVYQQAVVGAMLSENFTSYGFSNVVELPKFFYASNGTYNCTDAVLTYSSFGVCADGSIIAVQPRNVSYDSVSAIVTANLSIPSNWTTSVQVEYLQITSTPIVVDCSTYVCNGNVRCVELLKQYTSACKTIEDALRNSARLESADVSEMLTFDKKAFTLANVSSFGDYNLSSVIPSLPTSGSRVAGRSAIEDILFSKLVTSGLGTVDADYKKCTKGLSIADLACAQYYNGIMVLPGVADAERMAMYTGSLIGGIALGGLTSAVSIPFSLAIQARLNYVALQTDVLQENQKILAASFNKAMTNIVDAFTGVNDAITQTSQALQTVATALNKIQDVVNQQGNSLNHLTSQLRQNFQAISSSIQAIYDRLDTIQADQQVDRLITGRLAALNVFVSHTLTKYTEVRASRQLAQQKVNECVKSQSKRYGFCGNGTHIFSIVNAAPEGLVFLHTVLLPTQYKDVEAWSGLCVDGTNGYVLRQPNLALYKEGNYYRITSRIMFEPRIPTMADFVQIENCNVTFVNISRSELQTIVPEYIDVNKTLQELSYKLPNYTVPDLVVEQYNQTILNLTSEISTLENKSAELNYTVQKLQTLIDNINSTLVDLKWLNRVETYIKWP

T2: HCoV-NL63 spike protein (Sino Biological 40604-V08B) (HCoV-NL63, UniProt Q6Q1S2 19-1296)
T2 sequence: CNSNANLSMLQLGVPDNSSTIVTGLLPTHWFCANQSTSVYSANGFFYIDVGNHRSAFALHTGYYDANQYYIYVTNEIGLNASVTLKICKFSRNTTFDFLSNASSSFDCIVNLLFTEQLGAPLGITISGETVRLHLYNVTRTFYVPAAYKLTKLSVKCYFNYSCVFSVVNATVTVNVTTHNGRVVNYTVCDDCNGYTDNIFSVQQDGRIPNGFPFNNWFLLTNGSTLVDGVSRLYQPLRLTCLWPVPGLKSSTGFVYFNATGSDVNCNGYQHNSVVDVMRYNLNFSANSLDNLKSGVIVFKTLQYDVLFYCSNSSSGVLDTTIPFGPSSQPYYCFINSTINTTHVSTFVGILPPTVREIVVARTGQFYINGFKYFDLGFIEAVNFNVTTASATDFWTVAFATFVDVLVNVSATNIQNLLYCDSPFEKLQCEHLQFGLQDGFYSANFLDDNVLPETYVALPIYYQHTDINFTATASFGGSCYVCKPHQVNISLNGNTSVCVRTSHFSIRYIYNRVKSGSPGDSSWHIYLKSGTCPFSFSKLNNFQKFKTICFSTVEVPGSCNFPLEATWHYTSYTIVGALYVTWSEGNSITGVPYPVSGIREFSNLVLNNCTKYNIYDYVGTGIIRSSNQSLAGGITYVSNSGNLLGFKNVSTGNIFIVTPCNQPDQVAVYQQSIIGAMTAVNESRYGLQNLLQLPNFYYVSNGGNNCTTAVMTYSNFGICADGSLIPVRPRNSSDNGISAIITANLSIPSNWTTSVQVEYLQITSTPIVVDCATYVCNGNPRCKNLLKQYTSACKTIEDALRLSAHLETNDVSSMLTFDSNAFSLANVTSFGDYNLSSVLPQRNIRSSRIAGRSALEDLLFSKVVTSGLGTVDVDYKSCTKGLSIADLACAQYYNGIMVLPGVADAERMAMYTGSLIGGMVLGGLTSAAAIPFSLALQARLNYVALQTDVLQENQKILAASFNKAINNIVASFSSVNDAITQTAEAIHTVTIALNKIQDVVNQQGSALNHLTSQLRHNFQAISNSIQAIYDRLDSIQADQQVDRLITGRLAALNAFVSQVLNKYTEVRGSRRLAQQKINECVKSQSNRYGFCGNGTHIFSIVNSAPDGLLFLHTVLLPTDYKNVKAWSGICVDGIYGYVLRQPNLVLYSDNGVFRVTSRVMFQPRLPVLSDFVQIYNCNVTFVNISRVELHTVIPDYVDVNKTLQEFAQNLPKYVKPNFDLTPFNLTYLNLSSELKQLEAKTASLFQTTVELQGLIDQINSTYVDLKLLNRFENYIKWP

B1: COV49-30 (antibody, V domains shown)
VH: EVQLLESGGGLVQPGGSLRVSCTVSGFTFSDYSMSWVRQAPGKGLDWVSAISGTGETAYYADFVKGRFTSSRDNSKNTVYLQMNSLRGEDTAVYYCVKGVFYNILSSIIVEGDYWGQGTLVTVSS
VL: GVVMTQSPLSLPVTLGQPASISCRSSQSLVFSDGNTYLNWFQQRPGQSPRRLIYKVSKRDSGVPDRFSGSGSGTDFTLTISRVEAEDVGVYYCMQGTHWLSITFGQGTRLEIK
B2: COV49-07 (antibody, V domains shown)
VH: B1 VH with D46E, V79L, S85T, V100A
VL: B1 VL with K58E
B3: COV49-18 (antibody, V domains shown)
VH: B1 VH with T23A, D31N, S33A, T54S, A58R, S70I, V79L, V100A
VL: B1 VL with G1D, T79K
B4: COV57-19 (antibody, V domains shown)
VH: QVQLQESGPGLVKPSGTLSLTCAVSGDSISSSNWWSWVRQPPGKGLEWIGEIYQSGTTNNNPSLKSRVTISIDKSKNQFSLNLTSVTAADTAVYYCARAPLVFRSYGMDVWGQGTTVTVSS
VL: DIQMTQSPSSLSASVGDRVTITCRASQTIRTYLNWYQQKPGKAPKLLIYDASNLQSGVPSRFSGSGSGTDFTLTISSLEPEDFATYYCQQSYITPPWTFGQGTKVEIK
B5: COV57-05 (antibody, V domains shown)
VH: B4 VH with Q5L, A23D, P41S
VL: B4 VL with K104R
B6: COV57-45 (antibody, V domains shown)
VH: QVQLVQSGTEVKKPGSSVKVSCRASGGTLSSYSVSWVRQAPGQGLEWMGRIIPILDKKTYAQKYQGRVTILADTSTSTVYMELSSLKSDDSAVYFCTTFDYDTSGQRDQHDYWGQGTPVTVSS
VL: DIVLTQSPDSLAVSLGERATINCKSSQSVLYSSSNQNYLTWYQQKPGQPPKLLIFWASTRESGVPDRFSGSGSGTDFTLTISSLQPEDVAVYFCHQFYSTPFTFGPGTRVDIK
B7: COV77-35 (antibody, V domains shown)
VH: QMQLQESGPGLVKPSQTLSLTCAVSGGSISSDGYYWNWVRQHPGKGLELIAYIYYNGRPYYNPSLRSRVNISLDTSMNQFSLRVKSLTAADTAVYYCARGRLGYCAAGSCFLDSFDYWGQGALVTVSS
VL: EIVMTQYPATLSVSPGETATLSCRASESISRNLAWYQQKPGQAPRLLIYGASTRATGIPARFSGSGSGTEFALTISSLQAEDFAVYSCQQYHNWLLTFGGGTKVEIK
B8: COV77-14 (antibody, V domains shown)
VH: QVQLQESGPGLVKASQTLSLTCAVSGGSISSGDYYWTWIRSHPGKGLEWIAYIYYNGRTYYNPSLKSRLTISIDRSKNEFSLKVRSVTAADSAAYYCARGRLGFCAAGSCFLDSLDFWGQGTLVTVSS
VL: B7 VL with Y7S, T18R, A19V, R31N, T74I, A80S, S87F, H92Y
B9: COV77-43 (antibody, V domains shown)
VH: QVQLVESGGGVVQPGRSLRLSCSASGFTFSDYGMNWVRQAPGKGLEWVAMIWYDGSNYFYRDSVKGRFAISRDNSKNMVFLQMDNLRAEDTAVYFCARGTHFWSGLSLDAFDMWGQGTVVTVSS
VL: EIVMTQSPLSLPVTPGEPASISCRSSRSLLHYNGHNYLDWYLQKPGQSPQLLIYLGSNRAPGVPDRFSGSGSGTDFTLKISRVEAEDVGVYYCMQALQLNLITFGQGTRLEIK
B10: COV77-46 (antibody, V domains shown)
VH: QVQLQESGPGLVKPSQPLSLTCAVSGDSISSGGNYWSWIRQHPGKGLECIAYFYYTGRTYYNPSLKSRVTISLDTSKNQFSLKVSSVTAADTAVYFCARGRLGHCGGGSCFLDPLDYWGQGSLVTVSS
VL: EIVMTQSPATLSVSPGERATLSCRASERISSNLAWSQHKVGQAPRLLIYGASTRATGIPARFSGSGSGTEFTLTISSLQSEDFAVYYCHQYHNWLLTFGGGTKVEIK
B11: COV77-76 (antibody, V domains shown)
VH: QVQLQESGPGLVKPSETLSLTCTVSGGSISSFYWSWIRQPPGKRLEWIGYIYYRGSTNYNPSLKSRVTMSVDTSKNQFSLKLSSVTAADTAVYYCARELPNNWLDPWGQGTLVTVSS
VL: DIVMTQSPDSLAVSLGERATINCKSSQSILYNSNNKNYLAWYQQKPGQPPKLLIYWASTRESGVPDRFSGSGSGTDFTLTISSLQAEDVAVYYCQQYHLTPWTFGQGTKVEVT

biological target: SARS-CoV-2 spike receptor binding domain (RBD), recombinant (SARS-CoV-2, UniProt P0DTC2 319-541); experiment: bead flow cytometry, AUC minus CD4

Binder | binding result
B1 | no binding (tested: 200 µg/mL)
B2 | no binding (tested: 200 µg/mL)
B3 | no binding (tested: 200 µg/mL)
B4 | no binding (tested: 200 µg/mL)
B5 | no binding (tested: 200 µg/mL)
B6 | no binding (tested: 200 µg/mL)
B7 | no binding (tested: 200 µg/mL)
B8 | no binding (tested: 200 µg/mL)
B9 | no binding (tested: 200 µg/mL)
B10 | no binding (tested: 200 µg/mL)
B11 | no binding (tested: 200 µg/mL)

biological target: SARS-CoV-2 spike N-terminal domain (NTD), recombinant (SARS-CoV-2, UniProt P0DTC2 14-305); experiment: bead flow cytometry, AUC minus CD4

Binder | binding result
B1 | no binding (tested: 200 µg/mL)
B2 | no binding (tested: 200 µg/mL)
B3 | no binding (tested: 200 µg/mL)
B4 | no binding (tested: 200 µg/mL)
B5 | no binding (tested: 200 µg/mL)
B6 | no binding (tested: 200 µg/mL)
B7 | no binding (tested: 200 µg/mL)
B8 | no binding (tested: 200 µg/mL)
B9 | no binding (tested: 200 µg/mL)
B10 | no binding (tested: 200 µg/mL)
B11 | no binding (tested: 200 µg/mL)

biological target: T1, HCoV-229E spike protein (Sino …); experiment: bead flow cytometry, AUC minus CD4

Binder | binding result
B1 | no binding (tested: 200 µg/mL)
B2 | no binding (tested: 200 µg/mL)
B3 | no binding (tested: 200 µg/mL)
B4 | no binding (tested: 200 µg/mL)
B5 | no binding (tested: 200 µg/mL)
B6 | no binding (tested: 200 µg/mL)
B7 | no binding (tested: 200 µg/mL)
B8 | no binding (tested: 200 µg/mL)
B9 | no binding (tested: 200 µg/mL)
B10 | no binding (tested: 200 µg/mL)
B11 | no binding (tested: 200 µg/mL)

biological target: T2, HCoV-NL63 spike protein (Sino …); experiment: bead flow cytometry, AUC minus CD4

Binder | binding result
B1 | no binding (tested: 200 µg/mL)
B2 | no binding (tested: 200 µg/mL)
B3 | no binding (tested: 200 µg/mL)
B4 | no binding (tested: 200 µg/mL)
B5 | no binding (tested: 200 µg/mL)
B6 | no binding (tested: 200 µg/mL)
B7 | no binding (tested: 200 µg/mL)
B8 | no binding (tested: 200 µg/mL)
B9 | no binding (tested: 200 µg/mL)
B10 | no binding (tested: 200 µg/mL)
B11 | no binding (tested: 200 µg/mL)
